The text below walks through data of US20120165503A1 (Merck Sharp & Dohme, published 2012).

Substitutions are numbered along the chain they refer to. In names and notes the source's numbering stands. Like-named read-outs stand apart in the source and are kept apart here. *1 amine or outer side, *2 acyl side, *3 side chain or, on linkers, in order; H or OH if unused. Where no end group is shown, it is not given here. Side-chain parts run from the residue outwards. [ ]: non-standard residue; d: D form. The star is where a group is joined. O‑methyl‑L‑homoserine = COCC[C@H](N[*:1])C(=O)[*:2]; γGlu = O=C(O)[C@H](CCC(=O)[*:2])N[*:1]; Palmitoyl = CCCCCCCCCCCCCCCC(=O)*; Nle = CCCC[C@H](N)C(=O)O; Aib = CC(C)(N)C(=O)O

Assay [1] addresses T1, human GLP-1 receptor (human, UniProt P43220 24-463).
T1 construct: whole, on cells; also called hGLP-1R
The assay can be described thus: receptor binding affinity (GLP-1R IC50); assay format not described.

Assay [2] concerns the target T1, human GLP-1 receptor. The experiment in a line: cell-based or functional assay.
In assay [3] the target is T2, human glucagon receptor (human, UniProt P47871 26-477). The assay can be described thus: cell-based or functional assay.
For assay [4], the target named is T3, glucagon receptor of wild-type mice (liver, in vivo) (mouse, UniProt Q61606 27-485).
T3 construct: whole, on cells; Receptor occupancy measured in vivo in liver; also called GCGR; GGCR
The assay can be described thus: in vivo competition with 125I-glucagon, liver of wild-type mice, s.c. dosing.

Assay [5] has as its target T1, human GLP-1 receptor. The experiment in a line: cell-based or functional assay. The source holds these as a separate data set.
The target of assay [6] is T2, human glucagon receptor. The experiment in a line: cell-based or functional assay. This is another data set of the same source.
For assay [7], the target named is T1, human GLP-1 receptor. The assay can be described thus: cell-based or functional assay. The source holds these as a separate data set.
For assay [8], the target named is T2, human glucagon receptor. The experiment in a line: cell-based or functional assay. This is another data set of the same source.
Assay [9] has as its target T3, glucagon receptor of wild-type mice …. The experiment in a line: in vivo GCGR receptor occupancy, competition assay in wild-type mice, 3 mpk s.c.
Assay [10] concerns the target T1, human GLP-1 receptor. The experiment in a line: cell-based or functional assay. This is another data set of the same source.
For assay [11], the target named is T2, human glucagon receptor. The experiment in a line: cell-based or functional assay. This is another data set of the same source.

T3 sequence (Q61606 27-485): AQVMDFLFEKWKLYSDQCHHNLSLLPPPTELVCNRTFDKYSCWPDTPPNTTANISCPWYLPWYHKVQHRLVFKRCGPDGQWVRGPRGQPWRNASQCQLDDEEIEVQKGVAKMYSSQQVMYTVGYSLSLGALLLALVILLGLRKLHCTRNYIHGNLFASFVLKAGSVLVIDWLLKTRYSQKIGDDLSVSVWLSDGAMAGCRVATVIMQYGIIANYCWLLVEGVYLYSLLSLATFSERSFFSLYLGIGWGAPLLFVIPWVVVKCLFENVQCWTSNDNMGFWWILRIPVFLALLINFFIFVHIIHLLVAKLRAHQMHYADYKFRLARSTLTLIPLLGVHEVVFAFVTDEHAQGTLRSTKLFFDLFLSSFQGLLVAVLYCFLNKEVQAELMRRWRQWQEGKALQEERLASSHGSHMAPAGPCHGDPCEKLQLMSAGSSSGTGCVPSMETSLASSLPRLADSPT
T2 sequence (P47871 26-477): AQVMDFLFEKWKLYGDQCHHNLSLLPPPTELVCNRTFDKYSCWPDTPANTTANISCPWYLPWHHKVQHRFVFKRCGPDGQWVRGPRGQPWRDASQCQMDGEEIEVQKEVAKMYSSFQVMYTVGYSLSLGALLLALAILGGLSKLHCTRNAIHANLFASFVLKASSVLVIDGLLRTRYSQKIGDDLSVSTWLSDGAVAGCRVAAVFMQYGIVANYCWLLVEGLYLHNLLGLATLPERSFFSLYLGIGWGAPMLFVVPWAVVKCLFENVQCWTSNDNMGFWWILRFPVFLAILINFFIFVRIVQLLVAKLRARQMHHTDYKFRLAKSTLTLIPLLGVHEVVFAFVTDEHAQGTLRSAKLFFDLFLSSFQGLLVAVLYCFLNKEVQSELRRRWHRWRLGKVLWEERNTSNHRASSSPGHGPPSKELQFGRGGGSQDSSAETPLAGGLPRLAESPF

B1: OXM-Q3E (peptide)
peptide: HSEGTFTSDYSKYLDSRRAQDFVQWLMNTKRNRNNIA
notes: Native OXM with Glu instead of Gln at position 3; the entry already carries the change; also called OXM8 (Q3E); GLP-1 mimetic
Consider B1, for which the IC50 in assay [1] came to 237 nM. For the same molecule, in assay [2], the “GLP-1R EC50” value was 12.4 nM. Further, in assay [3], the “% Activation of GCGR” value stood at 17% and the “GCGR EC50” value amounted to 1640 nM. Also, the binding result in assay [4] was “no binding”.

With HSDGTFTSDYSKYLDSRRAQDFVQWLMNTKRNRNNIA [OXM-Q3D], in assay [2], the “GLP-1R EC50” value turned out to be 2.3 nM. Besides, in [3], the “% Activation of GCGR” value came to 1% and the “GCGR EC50” value was determined as 3400 nM.

B2: OXM414 (peptide)
peptide: H[dS]QGTFTSDK([γGlu-Palmitoyl])SKYLDERRAQDFVQWLMNTK[γGlu]-NH2
modifications: N-terminus assumed
SMILES: CCCCCCCCCCCCCCCC(=O)N[C@@H](CCC(=O)NCCCC[C@H](NC(=O)[C@H](CC(=O)O)NC(=O)[C@H](CO)NC(=O)[C@@H](NC(=O)[C@H](Cc1ccccc1)NC(=O)[C@@H](NC(=O)CNC(=O)[C@H](CCC(N)=O)NC(=O)[C@@H](CO)NC(=O)[C@@H](N)Cc1c[nH]cn1)[C@@H](C)O)[C@@H](C)O)C(=O)N[C@@H](CO)C(=O)N[C@@H](CCCCN)C(=O)N[C@@H](Cc1ccc(O)cc1)C(=O)N[C@@H](CC(C)C)C(=O)N[C@@H](CC(=O)O)C(=O)N[C@@H](CCC(=O)O)C(=O)N[C@@H](CCCNC(=N)N)C(=O)N[C@@H](CCCNC(=N)N)C(=O)N[C@@H](C)C(=O)N[C@@H](CCC(N)=O)C(=O)N[C@@H](CC(=O)O)C(=O)N[C@@H](Cc1ccccc1)C(=O)N[C@H](C(=O)N[C@@H](CCC(N)=O)C(=O)N[C@@H](Cc1c[nH]c2ccccc12)C(=O)N[C@@H](CC(C)C)C(=O)N[C@@H](CCSC)C(=O)N[C@@H](CC(N)=O)C(=O)N[C@H](C(=O)N[C@@H](CCCCN)C(=O)N[C@@H](CCC(N)=O)C(=O)O)[C@@H](C)O)C(C)C)C(=O)O
With B2, the “hGLP-1R EC50” value in assay [5] is 0.007 nM. For the same molecule, the “hGCGR EC50” value in assay [6] came to 5 pM. Also, the “hGLP-1R + 20% Plasma EC50” value in assay [7] came to 0.07 nM. Also, in assay [8], the “hGCGR + 20% plasma EC50” value was determined as 0.15 nM.

B3: OXM418 (peptide)
peptide: H[dS]QGTFTSDK([γGlu-γGlu-Palmitoyl])SKYLD[Aib]RRAQDFVQWLMNTK[γGlu]-NH2
modifications: N-terminus assumed
SMILES: CCCCCCCCCCCCCCCC(=O)N[C@@H](CCC(=O)N[C@@H](CCC(=O)NCCCC[C@H](NC(=O)[C@H](CC(=O)O)NC(=O)[C@H](CO)NC(=O)[C@@H](NC(=O)[C@H](Cc1ccccc1)NC(=O)[C@@H](NC(=O)CNC(=O)[C@H](CCC(N)=O)NC(=O)[C@@H](CO)NC(=O)[C@@H](N)Cc1c[nH]cn1)[C@@H](C)O)[C@@H](C)O)C(=O)N[C@@H](CO)C(=O)N[C@@H](CCCCN)C(=O)N[C@@H](Cc1ccc(O)cc1)C(=O)N[C@@H](CC(C)C)C(=O)N[C@@H](CC(=O)O)C(=O)NC(C)(C)C(=O)N[C@@H](CCCNC(=N)N)C(=O)N[C@@H](CCCNC(=N)N)C(=O)N[C@@H](C)C(=O)N[C@@H](CCC(N)=O)C(=O)N[C@@H](CC(=O)O)C(=O)N[C@@H](Cc1ccccc1)C(=O)N[C@H](C(=O)N[C@@H](CCC(N)=O)C(=O)N[C@@H](Cc1c[nH]c2ccccc12)C(=O)N[C@@H](CC(C)C)C(=O)N[C@@H](CCSC)C(=O)N[C@@H](CC(N)=O)C(=O)N[C@H](C(=O)N[C@@H](CCCCN)C(=O)N[C@@H](CCC(N)=O)C(=O)O)[C@@H](C)O)C(C)C)C(=O)O)C(=O)O
Take B3: the “hGLP-1R EC50” value in assay [5] is 0.026 nM. For the same molecule, the “hGCGR EC50” value in [6] worked out at 2 pM. Further, in assay [7], the “hGLP-1R + 20% Plasma EC50” value stood at 0.3 nM. For the same molecule, the “hGCGR + 20% plasma EC50” value in assay [8] was found to be 0.3 nM.

B4: OXM70 (peptide)
peptide: HXQGTFTSDYSKYLDSRRAQDFVQWLMNTKRNRNNIAC
modifications: Aib at position 2; C4 = Cys(cholest-5-en-3-yl{[(2R)-3-amino-2-(amino)-3-oxopropyl]thio}acetate) at position 38; C-terminal amide
For B4, in assay [9], the “% RO @ 3 mpk s.c.” value is around 0%. Moreover, the “GLP-1R EC50” value in [10] turned out to be 0.15 nM. Further, in [11], the “GCGR + 10% plasma” value turned out to be 169 nM and the “GCGR EC50” value is 2.4 nM.

On to HXQGTFTSDYSKYLDSRRAQDFVQWLMNTKRNRNNIAC (Aib at position 2; C7 = Cys(Oxa4-cholesterol) at position 38; C-terminal amide) [OXM216], for which, in [9], the “% RO @ 3 mpk s.c.” value was found to be 10%. For the same molecule, the “GLP-1R EC50” value in [10] turned out to be 3.1 nM. For the same molecule, in assay [11], the “% Activation of GCGR” value amounted to 93%, the “GCGR + 10% plasma” value was found to be 12 nM and the “GCGR EC50” value came to 0.63 nM.

B5: OXM115 (peptide)
peptide: B4 peptide with X2S
modifications: D-Ser at position 2; C7 = Cys(Oxa4-cholesterol) at position 38; C-terminal amide
Take B5: the “% RO @ 3 mpk s.c.” value in [9] came to 36%. In [10], the “GLP-1R EC50” value is 0.08 nM. Moreover, in [11], the “% Activation of GCGR” value amounted to 100%, the “GCGR + 10% plasma” value came to 0.64 nM and the “GCGR EC50” value was 0.33 nM.

In the case of HXQGTFTSDYSKYLDSRRAQDFVQWLMNTKRNRNNIAK (Aib at position 2; K(palmitoyl) at position 38; C-terminal amide) [OXM177], the “% RO @ 3 mpk s.c.” value in assay [9] is 30%. The “GLP-1R EC50” value in assay [10] stood at 0.1 nM. Further, in [11], the “% Activation of GCGR” value is 93%, the “GCGR + 10% plasma” value was 3 nM, the “GCGR + 10% plasma (fold shift)” value came to 5 fold and the “GCGR EC50” value came out at 0.59 nM.

Consider H[Aib]QGTFTSDYSKYLDSRRAQDFVQWL[O‑methyl‑L‑homoserine]NTKRNRNNIAC(cholesterol)-NH2 [OXM213], for which the “GLP-1R EC50” value in assay [10] is 0.3 nM. For the same molecule, in assay [11], the “GCGR + 10% plasma” value amounted to 1210 nM and the “GCGR EC50” value was 27.6 nM.

With H[Aib]QGTFTSDYSKYLDSRRAQDFVQWL[Nle]NTKRNRNNIAC(cholesterol)-NH2 [OXM212], the “GLP-1R EC50” value in assay [10] is 0.6 nM. In addition, in [11], the “% Activation of GCGR” value worked out at 115%, the “GCGR + 10% plasma” value was 1030 nM, the “GCGR + 10% plasma (fold shift)” value was 92 fold and the “GCGR EC50” value came to 11.3 nM.
